Measurements as given in patent US20090036364A1.
Square brackets hold non-standard residues; d marks the D form. Ends that are not written are not given here.

Columns and labels:
GIP receptor = biological target: T1, GIP receptor; assay: GIP receptor binding assay
T1 sequence (P48546 whole entry, species assumed, looked up): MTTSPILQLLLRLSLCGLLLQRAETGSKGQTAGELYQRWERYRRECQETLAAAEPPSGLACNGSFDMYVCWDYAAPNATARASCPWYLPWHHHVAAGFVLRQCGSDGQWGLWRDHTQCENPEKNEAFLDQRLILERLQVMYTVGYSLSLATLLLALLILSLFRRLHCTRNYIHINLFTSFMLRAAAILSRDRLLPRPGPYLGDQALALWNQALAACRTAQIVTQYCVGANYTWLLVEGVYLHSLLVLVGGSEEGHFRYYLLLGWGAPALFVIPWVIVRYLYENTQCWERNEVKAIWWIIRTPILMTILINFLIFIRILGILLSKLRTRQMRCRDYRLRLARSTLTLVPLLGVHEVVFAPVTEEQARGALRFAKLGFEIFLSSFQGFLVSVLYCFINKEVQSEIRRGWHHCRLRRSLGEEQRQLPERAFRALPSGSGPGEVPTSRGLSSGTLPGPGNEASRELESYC

GLP-1 receptor, P32301 = biological target: T2, GLP-1 receptor, P32301; assay: GLP-1 receptor binding, displacement of [125I]GLP-1 on RINm5F cell membranes
T2 chain: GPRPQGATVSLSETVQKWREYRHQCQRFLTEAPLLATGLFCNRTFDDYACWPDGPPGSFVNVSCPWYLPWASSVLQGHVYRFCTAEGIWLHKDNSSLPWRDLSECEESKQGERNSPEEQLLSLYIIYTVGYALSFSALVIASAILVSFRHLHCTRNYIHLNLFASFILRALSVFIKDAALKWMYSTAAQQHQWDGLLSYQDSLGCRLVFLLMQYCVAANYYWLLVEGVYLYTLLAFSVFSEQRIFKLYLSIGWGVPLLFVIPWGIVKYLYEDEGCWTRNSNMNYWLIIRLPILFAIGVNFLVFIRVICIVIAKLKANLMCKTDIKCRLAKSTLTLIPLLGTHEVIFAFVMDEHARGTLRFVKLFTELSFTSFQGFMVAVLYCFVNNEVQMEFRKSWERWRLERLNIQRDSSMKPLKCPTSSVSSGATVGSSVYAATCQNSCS

Binder: Y[dA]EGTFISDYSIAMDKIHQQDFVNWLLAQKPKKIRYS [0601GIP4233, [dAla2] GIP-(1-30)-fGLP-1v2-(31-37)]
- GIP RBA (GIP receptor): 0.1 nM

Binder: YAEGTFISDYSIAMDKIHQQDFVNWLLAQKPSSGAPPPS (modifications not checked) [0601GIP3794, (D-Ala2)GIP(1-30)-… amide form]
- GLP RBA (GLP-1 receptor, P32301): 1000
